Reference: PMC2774623 (Biochemistry, 2008)
Where two headings read alike, the source gives them in different places.

B1: wild-type recombinant murine NBD1 (nucleotide binding domain 1 of CFTR, spanning sequence 389−673) (domain or fragment, mouse, UniProt P26361 389-673, looked up)
chain: TTGIIMENVTAFWEEGFGELLEKVQQSNGDRKHSSDENNVSFSHLCLVGNPVLKNINLNIEKGEMLAITGSTGSGKTSLLMLILGELEASEGIIKHSGRVSFCSQFSWIMPGTIKENIIFGVSYDEYRYKSVVKACQLQQDITKFAEQDNTVLGEGGVTLSGGQRARISLARAVYKDADLYLLDSPFGYLDVFTEEQVFESCVCKLMANKTRILVTSKMEHLRKADKILILHQGSSYFYGTFSELQSLRPDFSSKLMGYDTFDQFTEERRSSILTETLRRFSVDD
B2: wild-type human NBD1 (spanning sequence 389−673) (domain or fragment, UniProt P13569 389-673, looked up)
chain: TTEVVMENVTAFWEEGFGELFEKAKQNNNNRKTSNGDDSLFFSNFSLLGTPVLKDINFKIERGQLLAVAGSTGAGKTSLLMVIMGELEPSEGKIKHSGRISFCSQFSWIMPGTIKENIIFGVSYDEYRYRSVIKACQLEEDISKFAEKDNIVLGEGGITLSGGQRARISLARAVYKDADLYLLDSPFGYLDVLTEKEIFESCVCKLMANKTRILVTSKMEHLKKADKILILHEGSSYFYGTFSELQNLQPDFSSKLMGCDSFDQFSAERRNSILTETLHRFSLEG
B3: recombinant β-subunit of human protein kinase CK2 (natural protein)
chain: not shown
B4: ΔF508 mutated recombinant murine NBD1 (spanning sequence 389−673) (domain or fragment, mouse, UniProt P26361 389-673, looked up)
chain: TTGIIMENVTAFWEEGFGELLEKVQQSNGDRKHSSDENNVSFSHLCLVGNPVLKNINLNIEKGEMLAITGSTGSGKTSLLMLILGELEASEGIIKHSGRVSFCSQFSWIMPGTIKENIIGVSYDEYRYKSVVKACQLQQDITKFAEQDNTVLGEGGVTLSGGQRARISLARAVYKDADLYLLDSPFGYLDVFTEEQVFESCVCKLMANKTRILVTSKMEHLRKADKILILHQGSSYFYGTFSELQSLRPDFSSKLMGYDTFDQFTEERRSSILTETLRRFSVDD

How the values were obtained:
Experiment in all cases: SPR
[1] = target: T1, recombinant α-subunit of human protein kinase CK2 (human, UniProt P68400 1-391)
T1 sequence (P68400 whole entry): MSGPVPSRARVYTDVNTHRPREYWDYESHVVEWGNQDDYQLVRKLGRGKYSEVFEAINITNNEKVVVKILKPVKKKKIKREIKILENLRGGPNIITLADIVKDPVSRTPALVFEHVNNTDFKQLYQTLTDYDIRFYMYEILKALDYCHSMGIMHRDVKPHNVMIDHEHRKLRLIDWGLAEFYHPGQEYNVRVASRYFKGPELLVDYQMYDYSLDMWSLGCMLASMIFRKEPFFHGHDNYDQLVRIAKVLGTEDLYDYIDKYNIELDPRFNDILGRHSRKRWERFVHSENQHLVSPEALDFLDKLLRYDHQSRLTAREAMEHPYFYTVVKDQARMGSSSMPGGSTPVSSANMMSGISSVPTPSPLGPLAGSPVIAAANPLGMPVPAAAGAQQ

[2] = target: T1, recombinant α-subunit of human protein …; remark: listed apart in the source
[3] = target: T1, recombinant α-subunit of human protein …; remark: listed apart in the source
[4] = target: B2
[5] = target: B1
[6] = target: B4

Row | Binder | Kd [1] [nM] | koff [1] [s⁻¹] | kon [1] [M⁻¹ s⁻¹] | binding result [2] | other results
1 | B1 | 2470 | 0.000335 | 135 |  | 
2 | IIGVSYDEYRYR (peptide, UniProt P13569 506-518, looked up) [CFTR peptide 506−518 ΔF] |  |  |  | binds | 
3 | B2 |  |  |  |  | binding result [3]: binds
4 | B3 |  |  |  | binds | binding result [4]: binds; binding result [5]: binds; binding result [6]: binds
5 | B4 | 91.2 | 8.77e-05 | 961 |  | 
